The target in the assay is recombinant HPV16 E6 protein (human papillomavirus type 16) (UniProt P03126). Description: SPR. In general terms: Surface plasmon resonance follows binding to a sensor surface in real time, without labels.
Sequence of UniProt P03126 (P03126 whole entry): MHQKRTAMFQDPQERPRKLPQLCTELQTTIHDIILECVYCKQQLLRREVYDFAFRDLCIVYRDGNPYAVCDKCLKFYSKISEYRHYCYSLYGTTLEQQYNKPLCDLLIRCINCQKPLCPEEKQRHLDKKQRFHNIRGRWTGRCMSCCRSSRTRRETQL

Regarding “ZWT affibody (original affibody scaffold molecule, wild-type Z domain) (designed binder)”, the koff (in general, a measure of how fast the partners let go of each other) was determined as 0.000886 s⁻¹.

Values taken from article PMC8181454.
